Results: US20240116985A1, “STAPLED PEPTIDES AND METHODS THEREOF” (priority 2020, published 2024)
Starred links: 1 amine or outer side, 2 acyl side, 3 side chain; linkers in the order of their positions; H or OH if unused. Positions of bridges follow the written chain, without caps; N, C: chain ends. Non-standard residues stand in square brackets, D forms with d. Primed or numbered codes have the meaning given here. PyrS2″ = (S)-3-amino-1-((pent-4-en-1-yloxy)carbonyl)pyrrolidine-3-carboxylic acid (stapling residue), C=CCCCOC(=O)N1CC[C@@](N[*:1])(C(=O)[*:2])C1; (bismethoxyethylamine)GlnR = [bismethoxyethylamine]GlnR, N5,N5-bis(2-methoxyethyl)-L-glutamine, COCCN(CCOC)C(=O)CC[C@H](N[*:1])C(=O)[*:2]; B5(4) = 2,2-bis(4-pentenyl)glycine = 2-amino-2-(pent-4-en-1-yl)hept-6-enoic acid (stitching residue), C=CCCCC(CCCC=C)(N[*:1])C(=O)[*:2]; B5(19) = 2-amino-2-(pent-4-en-1-yl)hept-6-enoic acid (bis(4-pentenyl)glycine), C=CCCCC(CCCC=C)(N[*:1])C(=O)[*:2]; B5(25) = 2-amino-2-(pent-4-en-1-yl)hept-6-enoic acid (stitching residue), C=CCCCC(CCCC=C)(N[*:1])C(=O)[*:2]; B5(3) = 2,2-bis(4-pentenyl)glycine (stitching residue), C=CCCCC(CCCC=C)(N[*:1])C(=O)[*:2]; PyrR = (R)-1-((allyloxy)carbonyl)-3-aminopyrrolidine-3-carboxylic acid; Phe(3-COOH) = N[C@@H](Cc1cccc(C(=O)O)c1)C(=O)O; 2F3MeF = Cc1cccc(C[C@H](N[*:1])C(=O)[*:2])c1F; Phe(2-CF3) = N[C@@H](Cc1ccccc1C(F)(F)F)C(=O)O; Phe(4-Cl) = N[C@@H](Cc1ccc(Cl)cc1)C(=O)O; dαMeGly(allyl) = C=CC[C@@](C)(N)C(=O)O; Bta = N[C@@H](Cc1csc2ccccc12)C(=O)O; αAllylPro = C=CC[C@@]1(C(=O)O)CCCN1; tBuAla = CC(C)(C)C[C@H](N)C(=O)O; 3Thi = N[C@@H](Cc1ccsc1)C(=O)O; S8 = C=CCCCCCC[C@](C)(N)C(=O)O; R5 = C=CCCC[C@@](C)(N)C(=O)O; 34ClF = not defined here; Nle = CCCC[C@H](N)C(=O)O; Abu = CC[C@H](N)C(=O)O; Aib = CC(C)(N)C(=O)O

B1: I-657 (peptide)
peptide: Ac-[αAllylPro]DI[B5(4)]DE[Nle]AFQ[S8]F[Bta]Q-NH2
modifications: staple 1-4, 4-11
B2: I-656 (peptide)
peptide: Ac-[αAllylPro]DI[B5(4)]DE[Nle]AFQ[S8]F[Bta]Q-NH2
modifications: staple 1-4, 4-11
B3: I-666 (peptide)
peptide: Ac-[αAllylPro]DI[B5(19)]DEA[Nle]FQ[S8]F[Bta]Q-NH2
modifications: staple 1-4, 4-11
B4: I-2219 (peptide)
peptide: Ac-[αAllylPro]D[tBuAla][B5(3)]D[Phe(3-COOH)]QAFL[PyrS2″][2F3MeF][34ClF]A-NH2
modifications: staple 1-4, 4-11; reading uncertain
B5: I-2220 (peptide)
peptide: Ac-[αAllylPro]D[tBuAla][B5(3)]D[Phe(3-COOH)]AAFL[PyrS2″][3Thi][Phe(4-Cl)]Q-NH2
modifications: staple 1-4, 4-11
B6: I-2567 (peptide)
peptide: Ac-P[R5]D[tBuAla][B5(25)]D[Phe(3-COOH)]AAFL[PyrS2″][Phe(2-CF3)][Bta]Q-NH2
modifications: staple 5-12, 2-5
B7: I-2566 (peptide)
peptide: Ac-P[dαMeGly(allyl)]D[tBuAla][B5(25)]D[Phe(3-COOH)]AAFL[PyrS2″][Phe(2-CF3)][Bta]Q-NH2
modifications: staple 5-12, 2-5
B8: I-2573 (peptide)
peptide: Ac-P[R5]D[tBuAla][B5(25)]D[Phe(3-COOH)]AAFL[PyrS2″][Phe(2-CF3)][Bta]Q-NH2
modifications: staple 5-12, 2-5; also: staple -CH=CH- reduced to -CH2-CH2-
B9: I-2554 (peptide)
peptide: Ac-[αAllylPro]D[tBuAla][B5(4)]D[Phe(3-COOH)][Aib]AF[Nle][PyrS2″][3Thi][Bta][(bismethoxyethylamine)GlnR]-NH2
modifications: staple 1-4, 4-11
B10: I-2559 (peptide)
peptide: Ac-[αAllylPro]D[tBuAla][B5(4)]D[Phe(3-COOH)][Aib]AF[Abu][PyrS2″][3Thi][Bta][(bismethoxyethylamine)GlnR]-NH2
modifications: staple 1-4, 4-11
B11: I-2572 (peptide)
peptide: Ac-P[dαMeGly(allyl)]D[tBuAla][B5(4)]D[Phe(3-COOH)]AAFL[PyrS2″][Phe(2-CF3)][Bta]Q-NH2
modifications: staple 5-12, 2-5; also: -CH=CH- in each staple reduced to -CH2-CH2-
B12: I-2569 (peptide)
peptide: Ac-[PyrR]ED[tBuAla][B5(25)]D[Phe(3-COOH)]AAFL[PyrS2″][Phe(2-CF3)][Bta]Q-NH2
modifications: staple 1-5, 5-12 (inferred); not fully specified; printed as Ac-PyrR-Glu-Asp-Npg-B5-Asp-3COOHF-Ala-Ala-Phe-Leu-PyrS2-2F3MeF-BztA-Gln-NH2
B13: I-2568 (peptide)
peptide: Ac-[PyrR]AD[tBuAla][B5(25)]D[Phe(3-COOH)]AAFL[PyrS2″][Phe(2-CF3)][Bta]Q-NH2
modifications: staple 1-5, 5-12 (inferred); not fully specified; printed as Ac-PyrR-Ala-Asp-Npg-B5-Asp-3COOHF-Ala-Ala-Phe-Leu-PyrS2-2F3MeF-BztA-Gln-NH2

biological target: full-length beta-Catenin (Uniprot ID P35222) (Homo sapiens (Human)) (UniProt P35222); test: fluorescence polarization competition, full-length beta-catenin with 5FAM-TCF4(10-53) probe as competitor
Target sequence in this assay (P35222 2-781 limits assumed): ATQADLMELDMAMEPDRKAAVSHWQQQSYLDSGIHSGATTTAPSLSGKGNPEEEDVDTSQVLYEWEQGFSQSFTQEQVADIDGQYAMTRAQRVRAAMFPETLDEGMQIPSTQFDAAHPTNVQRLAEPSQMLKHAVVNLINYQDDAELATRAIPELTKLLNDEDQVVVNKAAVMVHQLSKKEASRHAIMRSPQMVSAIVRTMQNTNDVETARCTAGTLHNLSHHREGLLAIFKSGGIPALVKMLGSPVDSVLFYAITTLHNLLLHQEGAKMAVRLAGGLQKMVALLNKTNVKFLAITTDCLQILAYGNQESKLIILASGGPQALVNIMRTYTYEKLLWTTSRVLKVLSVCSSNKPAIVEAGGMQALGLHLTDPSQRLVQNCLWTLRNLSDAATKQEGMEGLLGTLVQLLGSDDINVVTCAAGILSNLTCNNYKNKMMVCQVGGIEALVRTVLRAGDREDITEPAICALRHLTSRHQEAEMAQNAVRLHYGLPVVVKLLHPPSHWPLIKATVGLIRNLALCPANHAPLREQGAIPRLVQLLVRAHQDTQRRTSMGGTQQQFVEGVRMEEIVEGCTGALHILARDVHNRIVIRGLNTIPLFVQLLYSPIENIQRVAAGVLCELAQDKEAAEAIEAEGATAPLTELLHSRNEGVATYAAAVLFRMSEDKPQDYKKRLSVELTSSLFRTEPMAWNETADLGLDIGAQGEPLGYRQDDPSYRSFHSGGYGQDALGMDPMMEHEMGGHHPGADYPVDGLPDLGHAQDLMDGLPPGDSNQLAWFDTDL

Row | EC50 | Binder
1 | 46 nM | B1
2 | 73 nM | B2
3 | 626 nM | B3

biological target: full-length beta-Catenin (Uniprot ID P35222) (Homo sapiens (Human)) (UniProt P35222); test: fluorescence polarization competition against 5FAM-TCF4 10-53
Target sequence in this assay (P35222 whole entry, one chain of several): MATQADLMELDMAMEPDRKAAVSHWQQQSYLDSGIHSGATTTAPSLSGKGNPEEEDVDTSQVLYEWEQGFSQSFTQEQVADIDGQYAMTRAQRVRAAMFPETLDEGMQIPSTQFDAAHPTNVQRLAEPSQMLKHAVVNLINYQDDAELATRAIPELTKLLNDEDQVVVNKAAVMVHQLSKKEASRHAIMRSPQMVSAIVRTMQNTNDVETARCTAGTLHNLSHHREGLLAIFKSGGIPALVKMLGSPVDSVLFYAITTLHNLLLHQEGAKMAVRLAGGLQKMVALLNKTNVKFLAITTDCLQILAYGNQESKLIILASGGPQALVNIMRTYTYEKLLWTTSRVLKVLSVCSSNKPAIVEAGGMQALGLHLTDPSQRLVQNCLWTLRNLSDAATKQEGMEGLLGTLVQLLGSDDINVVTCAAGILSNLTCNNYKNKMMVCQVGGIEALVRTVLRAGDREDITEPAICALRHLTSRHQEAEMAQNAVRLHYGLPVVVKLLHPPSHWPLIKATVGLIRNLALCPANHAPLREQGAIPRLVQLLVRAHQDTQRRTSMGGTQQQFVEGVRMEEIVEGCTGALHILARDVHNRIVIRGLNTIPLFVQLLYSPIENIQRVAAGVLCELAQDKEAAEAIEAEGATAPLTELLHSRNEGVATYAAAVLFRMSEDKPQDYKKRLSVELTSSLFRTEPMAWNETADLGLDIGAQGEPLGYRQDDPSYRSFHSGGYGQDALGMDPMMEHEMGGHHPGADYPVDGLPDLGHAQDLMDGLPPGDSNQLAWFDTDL

Row | IC50 | Binder
4 | 21 nM | B4
5 | 12 nM | B5

biological target: full-length beta-Catenin (Uniprot ID P35222) (Homo sapiens (Human)) (UniProt P35222); test: fluorescence polarization competition; full-length beta-catenin, competitor 5FAM-TCF4(10-53) probe
Target sequence in this assay (P35222 whole entry, one chain of several): as above

Row | IC50 | Binder
6 | 46 nM | B1
7 | 73 nM | B2
8 | 626 nM | B3

biological target: full-length beta-Catenin (Uniprot ID P35222) (Homo sapiens (Human)) (UniProt P35222); test: fluorescence polarization competition; competitor 5FAM-TCF4(10-53) on full-length beta-catenin
Target sequence in this assay (P35222 whole entry, one chain of several): as above

Row | IC50 | Binder
9 | 522 nM | B6
10 | 181 nM | B7
11 | 234 nM | B8
12 | 8 nM | B9
13 | 8 nM | B10
14 | 67 nM | B11
15 | 1950 nM | B12
16 | 4770 nM | B13

biological target: Bcat-Halo (UniProt P35222); test: NanoBRET Abs IC50, Bcat-Halo/TCF4-Luc in HEK293 cells
Sequence (P35222 whole entry): as the sequence (P35222 whole entry, one chain of several) above

Row | IC50 | Binder
17 | 2700 nM | B4
18 | 16300 nM | B5
